Test results from patent US10456446B2, “Use of human small leucine zipper protein in osteogenesis procedure” (Korea University Research and Business Foundation, priority 2013, dated 2019).

How the values were obtained:
PPARγ2 = biological target: T1, PPARγ2 (Homo sapiens, UniProt P37231); experiment: Fluorescence microscopy, subcellular localization with PPARγ2 in C3H10T1/2 cells; assay type: cell-based; conditions: GFP-PPARγ2 and Flag-sLZIP in C3H10T1/2 cells
T1 construct: expressed in transfected cells; host or cells: 293T
T1 sequence (P37231 1-505): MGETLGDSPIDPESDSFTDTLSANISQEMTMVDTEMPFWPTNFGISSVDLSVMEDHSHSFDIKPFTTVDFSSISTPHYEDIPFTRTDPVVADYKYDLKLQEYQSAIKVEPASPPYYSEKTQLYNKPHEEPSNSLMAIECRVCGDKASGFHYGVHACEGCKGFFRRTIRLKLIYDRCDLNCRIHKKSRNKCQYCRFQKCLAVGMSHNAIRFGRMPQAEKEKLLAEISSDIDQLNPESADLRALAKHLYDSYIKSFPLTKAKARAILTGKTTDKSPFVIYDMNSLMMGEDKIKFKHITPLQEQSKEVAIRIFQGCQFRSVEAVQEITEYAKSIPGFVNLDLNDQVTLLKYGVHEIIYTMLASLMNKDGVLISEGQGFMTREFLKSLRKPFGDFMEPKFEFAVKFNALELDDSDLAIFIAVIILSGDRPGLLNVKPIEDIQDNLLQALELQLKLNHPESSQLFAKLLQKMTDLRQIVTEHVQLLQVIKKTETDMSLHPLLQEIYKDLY
Method: C3H10T1/2 cells were transiently ci-transfected with Flag-sLZIP, GFP-PPARγ2 or GFP-sLZIP, and HDAC3 was grown on cover slip. After 24 hours, the cells were fixed with 4% paraformaldehyde for 10 minutes and permeabilized 0.2% Triton-X 100 for 5 minutes. The cells were incubated with 1% BSA for one hour, and then incubated with anti-Flag and anti-HDAC3 antibodies overnight at 4° C. The cells were washed with PBS, and then were incubated with Texas Red-labeled antibodies for 2 hours. A cover slide was washed with PBS, and mounted on and examined using a LSM 510 META confocal microscopy (Carl Zeiss, Jena, Germany).
In order to examine whether the transcriptional activity of PPARγ2 is regulated by interaction with sLZIP, interaction between sLZIP and PPARγ2 was examined. For this purpose, 293T cells were transfected with GST-sLZIP and Myc-PPARγ2. Cell lysates were obtained and GST pull-down analysis was performed using a glutathione 4B bead. A protein complex was analyzed in SDS-PAGE and then immunoblotted with specific antibodies (FIG. 2A). […] Proteins bound to the bead were analyzed in SDS-PAGE, and then immunoblotted with anti-PPARγ2 and anti-His antibodies (FIG. 2C). GFP-PPARγ2 and Flag-sLZIP constructs were expressed in C3H10T1/2 cells, and analyzed using mouse anti-Flag and Texas Red-labeled anti-mouse antibodies under a fluorescence microscope. […]

[1] = tested on: BMMs (bone marrow macrophages)-derived mature osteoclasts; experiment: Osteoclast marker mRNA in osteoclasts derived from bone marrow macrophages of sLZIP TG mice, real-time PCR; assay type: cell-based, mouse; conditions: RANKL 100 ng/mL and M-CSF 30 ng/mL, wild type versus sLZIP TG mice
Method: Real-time PCR was performed in LightCycler 480 using a SYBR Green Master Mix (Roche, Mannheim, Germany). β-actin was used as an internal control group. A target gene expression level rate with respect to β-actin was calculated using CT method. A Ct value is defined as a PCR cycle number at which a fluorescence signal reaches a fixed target threshold. Experiments were technically repeated three times for each experiment.
When a bone is initially developed during an embryo, cartilage is formed and hardened to a bone according to a so-called ossification (or osteogenesis) process. In order to examine whether sLZIP-mediated osteogenesis is associated with cartilage development, an effect of sLZIP in chondrocyte differentiation was examined. For this purpose, ATDC5 cells were temporarily transfected with sLZIP at different contents (0.1 μg to 0.5 μg). Total RNA was extracted from the cells, and an mRNA expression level of a chondrocyte marker was measured using RT-PCR analysis (FIG. 8A) and real-time PCR (FIG. 8B). GAPDH was used as an internal control group. An experiment was repeated three times. […] Total RNA was extracted from the mature osteoclasts, and an mRNA expression level of an osteoclast marker was measured using real-time PCR (FIG. 8D). […]

B1: sLZIP: human small leucine-zipper protein, isoform of LZIP, 354 amino acids, no transmembrane domain, GenBank FJ263669, SEQ ID NO: 1 (protein, listed as Homo sapiens)
chain: MELELDAGDQDLLAFLLEESGDLGTAPDEAVRAPLDWALPLSEVPSDWEVDDLLCSLLSPPASLNILSSSNPCLVHHDHTYSLPRETVSMDLESESCRKEGTQMTPQHMEELAEQEIARLVLTDEEKSLLEKEGLILPETLPLTKTEEQILKRVRRKIRNKRSAQESRRKKKVYVGGLESRVLKYTAQNMELQNKVQLLEEQNLSLLDQLRKLQAMVIEISNKTSSSSMYSSDTRGSLPAEHGVLSRQLRALPSEDPYQLELPALQSEVPKDSTHQWLDGSDCVLQAPGNTSCLLHYMPQAPSAEPPLEWPFPDLFSEPLCRGPILPLQANLTRKGGWLPTGSPSVILQDRYSG
PPARγ2
  subcellular localization of sLZIP and PPARγ2: localized in the nucleus together with PPARγ2
[1]
  osteoclast markers (Oscar, Ctsk, TARP): no difference
